According to patent US20060073149A1 (published 2006):

Target: T1, Soluble Aβ 1-40 (UniProt P05067 672-711)
T1 construct: domain: Aβ 1-40
Assay: SPR (BIAcore), alternate method: antibody captured on protein A or A/G, Aβ 1-40 in flow, 5 h dissociation, 1:1 model with mass transfer; alternate method: antibody captured on protein A or A/G, 5 h dissociation
Description: Protein A or protein A/G is immobilized via amine coupling to flow cells 1 and 2 of a B1 or CM5 sensor chip (BIAcore). The test antibody is then captured in flow cell 2 at desired levels (usually a 10-60 second injection of antibody) and 5 minutes is allowed for the antibody to stabilize. […] Each concentration is injected over the surface for 5 minutes at a flow rate of 50 μL/min. […] Aβ 1-40 and antibody are then eluted from both flow cells with a 40 second injection of glycine (pH 1.5). The signal is allowed to stabilize for 2 minutes before the next cycle. The data from flow cell 1 is subtracted from flow cell 2 to account for any bulk shifts due to buffer differences or non-specific binding to the sensor chip or protein A. The various concentrations are injected randomly and each concentration is run in duplicate. Two 0 nM runs are used to control for any dissociation of antibody from the protein A or A/G capture surface. The data is analyzed using the Biaevalution software. A 1:1 model with mass transfer and a local Rmax is used as the best fit for the data.

Kd: 0.4 nM
B1: humanized 266 antibody (antibody, human IgG1, kappa, V domains shown)
VH: EVQLVESGGGLVQPGGSLRLSCAASGFTFSRYSMSWVRQAPGKGLELVAQINSVGNSTYYPDTVKGRFTISRDNAKNTLYLQMNSLRAEDTAVYYCASGDYWGQGTLVTVSS
VL: DVVMTQSPLSLPVTLGQPASISCRSSQSLIYSDGNAYLHWFLQKPGQSPRLLIYKVSNRFSGVPDRFSGSGSGTDFTLKISRVEAEDVGVYYCSQSTHVPWTFGQGTKVEIKR
